Data taken from patent US20150376261A1 (VIB VZW, published 2015).

Tests used:
[1] = target: T1, human mu-opioid receptor (hMor1) (human, UniProt P35372 6-360); experiment: cell-based or functional assay
[2] = target: T1, human mu-opioid receptor (hMor1); experiment: not described
[3] = target: T2, β2AR365N (human, UniProt P07550 2-365); experiment: not described
T2 construct: also called non-fused β2AR365N; human β2 adrenergic receptor Gly2 to Gly365, N187E

T1 sequence (P35372 6-360, tags or fused parts left off): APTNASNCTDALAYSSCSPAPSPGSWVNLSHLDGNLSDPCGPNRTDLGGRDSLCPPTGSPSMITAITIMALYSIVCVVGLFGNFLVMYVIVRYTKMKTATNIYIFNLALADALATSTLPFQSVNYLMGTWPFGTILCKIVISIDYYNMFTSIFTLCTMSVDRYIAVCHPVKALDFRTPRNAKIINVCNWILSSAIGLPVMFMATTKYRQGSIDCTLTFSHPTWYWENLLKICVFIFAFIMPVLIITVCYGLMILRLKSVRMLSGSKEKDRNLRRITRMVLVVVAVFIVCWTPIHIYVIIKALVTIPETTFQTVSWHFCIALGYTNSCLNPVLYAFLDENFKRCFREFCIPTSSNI

B1: Nb33 (VHH)
VHH: QVQLQESGGGLVRPGGSRRLSCVDSERTSYPMGWFRRAPGKEREFVASITWSGIDPTYADSVADRFTISRDVANNTLYLQMNSLKHEDTAVYYCAARAPVGQSSSPYDYDYWGQGTQVTVSS
- IC50 ratio, Dmt1-Dalda: hMor1-34GS-Nb10 versus hMor1-34GS-Nb33 fusion ([3H]-diprenorphine competition, Sf9 membranes; Nb fused to the receptor) [1]: 36 ratio
- IC50 ratio, KGOP01: hMor1-34GS-Nb10 versus hMor1-34GS-Nb33 fusion [1]: 20 ratio
- IC50 ratio, naloxone: hMor1-34GS-Nb10 versus hMor1-34GS-Nb33 fusion [1]: 2 ratio

B2: Nb10 (VHH)
VHH: QVQLQESGGGLVQPGGSLRLSCAASGSFRSIVSMAWYRQAPGKQRELVASSNSGGSTNYADSVKGRFTISRDNAKNTVYLQMNSLKPEDTAVYWCNVQNRLPGFDAFSGRSIAETYWGQGTQVTVSS
notes: also called CA4910; irrelevant Single-domain antibody
- binding result [2]: no binding

B3: Nb69 (VHH)
VHH: QVQLQESGGGLVQAGGSLRLSCTASGLTLSNYAMGWFRQAPGKEREFVAADTWNGNTYHQDSVKGRFTISRDNAKNTVYLQMNYLKPEDTAVYYCAARGSRRSAYYSSSDYTYRGQGTQVTVSS
notes: Described as specific for the rat muscarinic receptor M3; Used as the mock fusion partner and as an exogenously added control; also called CA5669; mock Single-domain antibody
- binding result [3]: no binding
